From publication PMC3177407
pKd: −log10 of the molar value.

How the values were obtained:
Integrin α3β1 = Integrin α3β1 (UniProt P26006)
[1] = target: integrin alpha3beta1 (Homo sapiens) (UniProt P26006); conditions: cited from earlier work
Sequence of integrin alpha3beta1 (Homo sapiens) (P26006 33-991, chain 1 of 2): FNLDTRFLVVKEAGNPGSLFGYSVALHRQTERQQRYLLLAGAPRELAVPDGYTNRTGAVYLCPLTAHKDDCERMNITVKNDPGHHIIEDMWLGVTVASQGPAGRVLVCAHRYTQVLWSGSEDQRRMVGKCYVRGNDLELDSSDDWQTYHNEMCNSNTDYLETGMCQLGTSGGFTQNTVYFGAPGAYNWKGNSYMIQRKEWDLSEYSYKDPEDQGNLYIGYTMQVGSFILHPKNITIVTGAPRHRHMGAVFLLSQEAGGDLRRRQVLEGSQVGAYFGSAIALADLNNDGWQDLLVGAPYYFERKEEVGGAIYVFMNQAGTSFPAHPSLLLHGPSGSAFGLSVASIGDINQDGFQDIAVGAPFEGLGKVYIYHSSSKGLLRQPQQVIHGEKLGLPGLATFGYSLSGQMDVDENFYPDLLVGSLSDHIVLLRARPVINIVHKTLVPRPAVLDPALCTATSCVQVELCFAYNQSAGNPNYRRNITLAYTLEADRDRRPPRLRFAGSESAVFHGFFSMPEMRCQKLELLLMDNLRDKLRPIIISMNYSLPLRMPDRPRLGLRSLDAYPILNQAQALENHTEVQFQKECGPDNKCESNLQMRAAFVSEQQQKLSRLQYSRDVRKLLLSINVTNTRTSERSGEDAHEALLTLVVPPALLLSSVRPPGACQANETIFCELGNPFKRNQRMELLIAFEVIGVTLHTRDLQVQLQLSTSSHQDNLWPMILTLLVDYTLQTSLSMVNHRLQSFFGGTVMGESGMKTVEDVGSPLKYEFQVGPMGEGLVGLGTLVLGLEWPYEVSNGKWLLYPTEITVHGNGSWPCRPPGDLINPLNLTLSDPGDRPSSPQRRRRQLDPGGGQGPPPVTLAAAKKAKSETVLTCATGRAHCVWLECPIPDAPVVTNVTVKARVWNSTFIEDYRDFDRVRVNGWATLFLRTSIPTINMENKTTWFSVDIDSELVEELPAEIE
Sequence of integrin alpha3beta1 (Homo sapiens) (P05556 21-728, chain 2 of 2, further chain): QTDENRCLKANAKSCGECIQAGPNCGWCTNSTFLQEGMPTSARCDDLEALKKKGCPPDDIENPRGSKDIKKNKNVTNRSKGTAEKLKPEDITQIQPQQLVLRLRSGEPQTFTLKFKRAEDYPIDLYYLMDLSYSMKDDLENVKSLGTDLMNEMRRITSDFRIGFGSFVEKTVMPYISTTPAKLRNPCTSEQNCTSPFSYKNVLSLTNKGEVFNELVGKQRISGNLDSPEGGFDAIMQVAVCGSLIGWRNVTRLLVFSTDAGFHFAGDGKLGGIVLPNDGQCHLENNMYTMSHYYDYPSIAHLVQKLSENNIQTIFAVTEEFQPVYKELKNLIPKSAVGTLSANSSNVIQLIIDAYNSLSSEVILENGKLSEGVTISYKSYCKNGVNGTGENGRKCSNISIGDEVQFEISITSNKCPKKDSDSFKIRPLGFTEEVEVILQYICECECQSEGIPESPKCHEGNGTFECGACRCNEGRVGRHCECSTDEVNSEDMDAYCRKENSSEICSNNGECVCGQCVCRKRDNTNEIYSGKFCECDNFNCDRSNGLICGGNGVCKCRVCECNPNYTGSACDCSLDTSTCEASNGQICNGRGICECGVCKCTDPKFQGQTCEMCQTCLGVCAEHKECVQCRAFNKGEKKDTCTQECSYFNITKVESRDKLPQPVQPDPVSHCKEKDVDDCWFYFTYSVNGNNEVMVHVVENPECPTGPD

Sequence of Integrin α3β1 (P26006 33-1051, chain 1 of 2): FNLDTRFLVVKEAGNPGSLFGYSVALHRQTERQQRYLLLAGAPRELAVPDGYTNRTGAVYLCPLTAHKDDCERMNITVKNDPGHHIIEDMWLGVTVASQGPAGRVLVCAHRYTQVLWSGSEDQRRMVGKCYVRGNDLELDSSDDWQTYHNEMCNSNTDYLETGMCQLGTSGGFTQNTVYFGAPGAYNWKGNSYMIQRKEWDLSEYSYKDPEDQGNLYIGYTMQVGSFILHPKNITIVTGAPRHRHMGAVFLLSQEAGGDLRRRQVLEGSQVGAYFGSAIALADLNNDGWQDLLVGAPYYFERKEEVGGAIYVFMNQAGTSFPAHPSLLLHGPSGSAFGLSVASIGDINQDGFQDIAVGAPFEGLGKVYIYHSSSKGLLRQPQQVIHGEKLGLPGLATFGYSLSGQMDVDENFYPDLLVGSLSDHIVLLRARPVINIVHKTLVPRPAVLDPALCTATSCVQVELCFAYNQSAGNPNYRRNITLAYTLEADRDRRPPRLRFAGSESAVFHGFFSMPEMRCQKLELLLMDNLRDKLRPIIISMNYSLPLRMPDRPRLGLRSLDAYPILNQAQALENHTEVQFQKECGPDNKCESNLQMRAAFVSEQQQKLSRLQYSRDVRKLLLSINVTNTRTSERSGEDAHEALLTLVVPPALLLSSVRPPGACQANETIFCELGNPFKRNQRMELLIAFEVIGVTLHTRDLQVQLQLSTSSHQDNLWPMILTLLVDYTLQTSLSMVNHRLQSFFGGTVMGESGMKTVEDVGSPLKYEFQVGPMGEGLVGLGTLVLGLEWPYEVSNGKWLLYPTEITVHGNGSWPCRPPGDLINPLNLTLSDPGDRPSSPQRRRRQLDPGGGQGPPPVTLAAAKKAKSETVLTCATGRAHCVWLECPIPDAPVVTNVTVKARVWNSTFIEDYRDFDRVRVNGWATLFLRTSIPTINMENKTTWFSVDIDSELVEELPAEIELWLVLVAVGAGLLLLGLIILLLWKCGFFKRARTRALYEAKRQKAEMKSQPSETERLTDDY
Sequence of Integrin α3β1 (P05556 21-728, chain 2 of 2, further chain): as the sequence (P05556 21-728, chain 2 of 2, further chain) above
Sequence of TIMP-2 (P16035 27-220): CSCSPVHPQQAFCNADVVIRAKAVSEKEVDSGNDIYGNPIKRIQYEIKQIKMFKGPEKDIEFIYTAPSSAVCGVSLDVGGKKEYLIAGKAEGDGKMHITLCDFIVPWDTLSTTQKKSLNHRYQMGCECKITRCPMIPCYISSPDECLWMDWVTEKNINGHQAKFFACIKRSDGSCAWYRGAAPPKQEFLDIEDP

| inhibition of VEGF-A-stimulated (10 ng/mL) growth of hMVECs, 100 nM protein (Integrin α3β1) [%] | Substance | pKd [1] |
| --- | --- | --- |
| 75 | Ala+TIMP-2 (from UniProt P16035 27-220) (natural protein) |  |
|  | TIMP-2 (from UniProt P16035) | 9.05 |
